The results in this text go back to patent US20180140578A1, “METHODS AND COMPOSITIONS FOR THE DIAGNOSIS AND SELECTIVE TREATMENT OF CANCER” (Board of Regents of the University of Texas System, priority 2016, published 2018).

The target of test [1] is RBM39-3xFLAG (human) (UniProt Q14498). Description: anti-FLAG IP of RBM39-3xFLAG from H1155 cells treated with 10 µM indisulam, LC-MS/MS.
For test [2] the target is unchanged. Description: anti-FLAG IP of RBM39-3xFLAG from H1155 cells treated with DMSO (no indisulam), LC-MS/MS.
The next test has as its target DCAF15-3xFLAG (human) (UniProt Q66K64). As to the kind of experiment: pull-down of 100 nM RBM39Δ150 by DCAF15-3xFLAG on anti-FLAG beads with rising indisulam, western blot (FIG. 4C). A general note: Immunoblotting shows a protein as a band on a membrane.

Sequence of RBM39-3xFLAG (human) (Q14498 whole entry): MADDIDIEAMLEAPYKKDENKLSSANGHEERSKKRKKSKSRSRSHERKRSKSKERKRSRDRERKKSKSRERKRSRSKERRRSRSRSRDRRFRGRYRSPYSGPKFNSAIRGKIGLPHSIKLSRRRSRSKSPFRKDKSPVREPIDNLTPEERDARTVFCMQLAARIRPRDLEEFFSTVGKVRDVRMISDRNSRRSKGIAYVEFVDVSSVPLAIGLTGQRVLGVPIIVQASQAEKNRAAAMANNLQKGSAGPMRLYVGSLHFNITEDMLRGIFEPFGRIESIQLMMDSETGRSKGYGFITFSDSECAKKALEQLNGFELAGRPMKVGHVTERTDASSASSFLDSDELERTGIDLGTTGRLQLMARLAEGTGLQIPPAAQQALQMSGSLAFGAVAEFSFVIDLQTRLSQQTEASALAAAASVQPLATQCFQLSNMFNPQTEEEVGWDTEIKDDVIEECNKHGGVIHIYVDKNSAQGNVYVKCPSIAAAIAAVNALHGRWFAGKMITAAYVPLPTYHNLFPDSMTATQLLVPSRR
Sequence of DCAF15-3xFLAG (human) (Q66K64 whole entry): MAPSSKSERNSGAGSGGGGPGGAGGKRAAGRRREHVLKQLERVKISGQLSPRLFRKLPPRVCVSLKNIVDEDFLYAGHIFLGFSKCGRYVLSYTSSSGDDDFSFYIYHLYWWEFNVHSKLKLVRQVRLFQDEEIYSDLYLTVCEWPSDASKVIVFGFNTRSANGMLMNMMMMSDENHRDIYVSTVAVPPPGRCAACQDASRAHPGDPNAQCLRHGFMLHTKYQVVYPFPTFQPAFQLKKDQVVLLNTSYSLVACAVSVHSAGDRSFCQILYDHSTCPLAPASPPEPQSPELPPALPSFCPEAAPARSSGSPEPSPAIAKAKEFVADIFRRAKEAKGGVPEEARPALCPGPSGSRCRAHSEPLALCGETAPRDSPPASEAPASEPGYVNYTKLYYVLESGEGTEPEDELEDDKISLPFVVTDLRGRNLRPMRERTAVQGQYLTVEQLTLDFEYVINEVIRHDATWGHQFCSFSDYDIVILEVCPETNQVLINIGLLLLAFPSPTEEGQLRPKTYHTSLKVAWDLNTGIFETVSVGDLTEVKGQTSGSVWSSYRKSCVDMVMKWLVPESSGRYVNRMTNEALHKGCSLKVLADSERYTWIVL

On to ANXA2 (from UniProt P07355 2-339), for which, in the test with RBM39-3xFLAG (human) [1], the indisulam total (peptide count) came out at 11 peptides and the indisulam unique (peptide count) is 10 peptides. Further, in the test with RBM39-3xFLAG (human) [2], the DMSO total (peptide count) came to 1 peptides and the DMSO unique (peptide count) is 1 peptides.
For CUL4A (from UniProt Q13619 1-759), in the test with RBM39-3xFLAG (human) [1], the indisulam total (peptide count) was 11 peptides and the indisulam unique (peptide count) worked out at 11 peptides. In addition, in the test with RBM39-3xFLAG (human) [2], the DMSO total (peptide count) stood at 1 peptides and the DMSO unique (peptide count) turned out to be 1 peptides.
In the test with RBM39-3xFLAG (human) [1], CUL4B (from UniProt Q13620 1-913) displayed an indisulam total (peptide count) of 16 peptides and an indisulam unique (peptide count) of 15 peptides. For the same substance, in the test with RBM39-3xFLAG (human) [2], the DMSO total (peptide count) worked out at 0 peptides and the DMSO unique (peptide count) came to 0 peptides.
Turning to DDA1 (from UniProt Q9BW61 2-102), in the test with RBM39-3xFLAG (human) [1], the indisulam total (peptide count) was 4 peptides and the indisulam unique (peptide count) amounted to 4 peptides. For the same substance, in the test with RBM39-3xFLAG (human) [2], the DMSO total (peptide count) is 0 peptides and the DMSO unique (peptide count) stood at 0 peptides.
In the test with RBM39-3xFLAG (human) [1], DDB1 (from UniProt Q16531 2-1140) registered an indisulam total (peptide count) of 52 peptides and an indisulam unique (peptide count) of 46 peptides. Besides, in the test with RBM39-3xFLAG (human) [2], the DMSO total (peptide count) turned out to be 5 peptides and the DMSO unique (peptide count) turned out to be 4 peptides.
As for DDX46 (from UniProt Q7L014 2-1031), in the test with RBM39-3xFLAG (human) [1], the indisulam total (peptide count) turned out to be 6 peptides and the indisulam unique (peptide count) was 6 peptides. In the test with RBM39-3xFLAG (human) [2], this substance came in with a DMSO total (peptide count) of 0 peptides and a DMSO unique (peptide count) of 0 peptides.
In the test with RBM39-3xFLAG (human) [1], “DKFZp686J1372 (from UniProt Q5HYB6 1-232)” registered an indisulam total (peptide count) of 4 peptides and an indisulam unique (peptide count) of 4 peptides. For the same substance, in the test with RBM39-3xFLAG (human) [2], the DMSO total (peptide count) is 0 peptides and the DMSO unique (peptide count) turned out to be 0 peptides.
FUS (from UniProt P35637 1-526): in the test with RBM39-3xFLAG (human) [1], the indisulam total (peptide count) is 6 peptides and the indisulam unique (peptide count) came out at 6 peptides. In the test with RBM39-3xFLAG (human) [2], this substance displayed a DMSO total (peptide count) of 0 peptides and a DMSO unique (peptide count) of 0 peptides.
In the test with RBM39-3xFLAG (human) [1], HDX (from UniProt Q7Z353 1-690) had an indisulam total (peptide count) of 15 peptides and an indisulam unique (peptide count) of 14 peptides. Further, in the test with RBM39-3xFLAG (human) [2], the DMSO total (peptide count) turned out to be 0 peptides and the DMSO unique (peptide count) turned out to be 0 peptides.
PDIA3 (from UniProt P30101 25-505): in the test with RBM39-3xFLAG (human) [1], the indisulam total (peptide count) worked out at 4 peptides and the indisulam unique (peptide count) was found to be 4 peptides. Besides, in the test with RBM39-3xFLAG (human) [2], the DMSO total (peptide count) amounted to 0 peptides and the DMSO unique (peptide count) came out at 0 peptides.
As to PPM1B (from UniProt O75688 2-479), in the test with RBM39-3xFLAG (human) [1], the indisulam total (peptide count) worked out at 5 peptides and the indisulam unique (peptide count) is 5 peptides. In the test with RBM39-3xFLAG (human) [2], this substance showed a DMSO total (peptide count) of 0 peptides and a DMSO unique (peptide count) of 0 peptides.
For the substance PSMC5 (from UniProt P62195 2-406), in the test with RBM39-3xFLAG (human) [1], the indisulam total (peptide count) is 6 peptides and the indisulam unique (peptide count) amounted to 6 peptides. In the test with RBM39-3xFLAG (human) [2], this substance came in with a DMSO total (peptide count) of 0 peptides and a DMSO unique (peptide count) of 0 peptides.
In the test with RBM39-3xFLAG (human) [1], PSMD11 (from UniProt O00231 2-422) had an indisulam total (peptide count) of 5 peptides and an indisulam unique (peptide count) of 5 peptides. Also, in the test with RBM39-3xFLAG (human) [2], the DMSO total (peptide count) came to 0 peptides and the DMSO unique (peptide count) came to 0 peptides.
Take RBM39Δ150 (from UniProt Q14498 151-530): the indisulam concentration at which the complex was apparent with DCAF15-3xFLAG (human) came to 0.1 µM.
TPI1 (from UniProt P60174 2-249): in the test with RBM39-3xFLAG (human) [1], the indisulam total (peptide count) was 4 peptides and the indisulam unique (peptide count) is 4 peptides. In the test with RBM39-3xFLAG (human) [2], this substance showed a DMSO total (peptide count) of 0 peptides and a DMSO unique (peptide count) of 0 peptides.
In the test with RBM39-3xFLAG (human) [1], TPM3 (from UniProt P06753 2-285) yielded an indisulam total (peptide count) of 4 peptides and an indisulam unique (peptide count) of 4 peptides. In the test with RBM39-3xFLAG (human) [2], the DMSO total (peptide count) was determined as 0 peptides and the DMSO unique (peptide count) was determined as 0 peptides.
For YWHAB (from UniProt P31946 1-246), in the test with RBM39-3xFLAG (human) [1], the indisulam total (peptide count) was determined as 5 peptides and the indisulam unique (peptide count) came out at 4 peptides. In the test with RBM39-3xFLAG (human) [2], this substance gave a DMSO total (peptide count) of 0 peptides and a DMSO unique (peptide count) of 0 peptides.
